The source of these data is the nanobody polyreactivity screen of Harvey et al. (2022).

The series can be described thus: yeast display, Sf9 membrane polyspecificity reagent, FACS + sequencing; frameworks hold sequencing errors. The procedure, abridged: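 Galactose induction of a Saccharomyces cerevisiae BJ5465 synthetic nanobody display library ran 36–48 hours. The cells were then stained for 1 hour at 4 °C with 10% biotinylated, detergent-solubilized Sf9 membrane reagent, pulled down on streptavidin microbeads and FACS-sorted into low and high (top ~1%) gates on expression and reagent-binding fluorescence. Labels for polyreactivity follow the gate of origin.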
As for “QFQLVESGGGLVQAGGSLRLSCAASGFIFRYNAMGWYRQAPGKERELVAAIDSGGSTYYADSVKGRFTISRDNAKNTVDLQMNSLKPEDTAVYYCYAVHEASYSGVDYWGQGTQVTVSS”, the “polyreactivity (PSR sort gate)” value is recorded as “low polyreactivity”.
Then “QFQLVESGGGLVQAGGSLRLSCAASGFTFAVYAMGWYRQAPWKERELVAAISRSGTRTYYADSVKGRFTISRDNAKNTVYLQMNSLKPVDTAVYYCAADKYRHGYDYWGQGTQVTVSS”, with “low polyreactivity”; and “QFQLVESGGGLVQAGGSLRLSCAASGGIFDTNAMGWYRQATGKDRELVAAITVRGGSTYYADSVKGRFTISRDNAKNTVYLQMNSLKPEDTAVYYCATRSPKRAAVRYNYWGQGTQVTVSS”, with “high polyreactivity”.
In the case of “QFQLVESGGGLVQAGGSLRLSCAASGGIFYTYAMGWYRQAPAKERAFVAAISRSGGRTRYADSVKGRFTISRDNAKNTVYLQMNSLKQEDTAVYYCAARVIGAGLLKYDKWGQGTQVTVSS”, the “polyreactivity (PSR sort gate)” value is recorded as “high polyreactivity”.
In the case of “QFQLVESGGGLVQAGGSLRLSCAASGGTFPYNAMGWYRQAPGKERELVAAISSSGTSTYYADSVKGRFTISRDNAKNTVYLQMNSLKPEDTAVYYCNDYFKRYDYWGQGTQVTVSS”, the “polyreactivity (PSR sort gate)” value is given as “high polyreactivity”.
Then “QFQLVESGGGLVQAGGSLRLSCAASGGTFYVNDMGWYRQAPGKERELVATITYSGTSTYYADSVKGRFTISRDNAKNTVYLQMNSLKPEDTAVYYCATDVLLYFEPVNLDYWGQGTQVTVSS”, with “low polyreactivity”; and “QFQLVESGGGLVQAGGSLRLSCAASGIIFLENAMGWYRQAPGKEREFVAAISRSGGITYYADSVKGRFTISRDNAKNTVYLQMNSLKPEDTAVYYCAAVGRDRYRHSPQPLYDYWGQGTQVTVSS”, with “low polyreactivity”.
On to “QFQLVESGGGLVQAGGSLRLSCAASGITFSNYALGWYRQAPGKERELVAAISKRGGSTYYADSVKGRFTISRDNAKTTVDLQMNSLKPEDTAVYYCAADAYNPPYWVDPYDYWGQGTQVTVSS”, for which the “polyreactivity (PSR sort gate)” value is “high polyreactivity”.
Take “QFQLVESGGGLVQAGGSLRLSCAASGLIFRRYAMGWYRQAPGKEREFVAAISWSGGSTYYADSVKGRFTISRDNAKNSVYLQINSLKPEDTGVSYFAAYDKSLYGSGYDYWGQGTQVTVSP”: the “polyreactivity (PSR sort gate)” value is recorded as “high polyreactivity”.
The result for “QFQLVESGGGLVQAGGSLRLSCAASGLIFVINAMGWYRQAPGKERELDATISSGVSTNYADSVKGRFTISRDNAKNTVYLQMNSLKPEDTAVYYCNKDGVVEVRFTVRQEYDYWGQGTQVTVSS” reads “low polyreactivity”; that for “QFQLVESGGGLVQAGGSLRLSCAASGLTFSWYVMGWYRQAPGKERELVAAITNGGNTNYADSVKGRFTISRDNAKNTVYLQMNCLKPEDTAVYYCAARDPYTWPRSGSGYYEFDYWVQGTQVTVSS”, “low polyreactivity”.
In the case of “QFQLVESGGGLVQAGGSLRLSCAASGNTFYGYARGWYRQAPGKDRELVATMTGSGGDTYYADSVKGRFTISRDNANYTVYLPMNSLKPEDTAVYYCNAVEYYGGYPGTDYSYLAYNYWGQGTKVTVSS”, the “polyreactivity (PSR sort gate)” value is on record as “low polyreactivity”.
Turning to “QFQLVESGGGLVQAGGSLRLSCAASGRIFGIYAMGWDRQAPGKESELVATITDSDDSTYYADSVKGRFTISRDNAKNTVYLQMNSLKPEDTAVYYCATAFSYGGGAYDYWGQGTQVTVSS”, the “polyreactivity (PSR sort gate)” value is on record as “low polyreactivity”.
With “QFQLVESGGGLVQAGGSLRLSCAASGRIFGRYSRGLYRQAPGKERELVAAITWLGTTYYADSVKGRFTISRDNAKNTVYLQMNSLKPEDTAVYYCATVVLLRIWGGYWGQGTQVTVSS”, the “polyreactivity (PSR sort gate)” value was “high polyreactivity”.
Then “QFQLVESGGGLVQAGGSLRLSCAASGRIFGVNAMGWYRPAPGKERELVAAISYRGGHTYADSVKGRFTISRDNAKNTVYLQMNSLKPEDTAVYYCAARNRSSTGLGSRYGYWGQGTQVTVSS”, with “high polyreactivity”; and “QFQLVESGGGLVQAGGSLRLSCAASGRIFPGYAMGWYRQAPGKERELVAAISERGGSTYYADSVKGRFTISRDHAKNTVYLQMNSLKPEDTAVYYCAAIWRGGYNYWGQGTQVTVSS”, with “low polyreactivity”; and “QFQLVESGGGLVQAGGSLRLSCAASGRIFPQYAMGWSRQATGKERELVAGITSVGSTYYADSVKGRFTISRDNAKNTVYLQMNSLKPEDTAVYYCAAFYRGGDYWGQGTQVTVSS”, with “high polyreactivity”.
Then “QFQLVESGGGLVQAGGSLRLSCAASGRIFRGNAMGWYRQAPGKERELVAAILTGVSTYYADSVKGRFTISRDNAKNTVYLQMNSLKPEDTAVYYCAAERPSRRSGYEYWGQGTQVTVSS”, with “low polyreactivity”.
The result for “QFQLVESGGGLVQAGGSLRLSCAASGRIFYSNAMGWYRQAPGKERELVAAISSSGGITYYADSVKGRFTISRDNAKNTVNLQMNSLKPEDSAVYYCAVDSRHYIRAFDHWGQGTQVTVSS” reads “low polyreactivity”; that for “QFQLVESGGGLVQAGGSLRLSCAASGRTFIYYSMGWYRQAPGKERELVAAITRSGGSTNYADSVKGRFTISRDNSKNTVYIQMNSLKPEDTAVYYCAARFYGRRCIYGYWGQGTQVTVSS”, “high polyreactivity”.
For the sequence “QFQLVESGGGLVQAGGSLRLSCAASGRTFQHNVMGWYIQAPGKERELVASITCRGGSTYYADSVKGRFTISRDNAKNTVYLQMNSLKPEDTAVYYCAARNGFRRVRFDYWGQGTQVTVSS”, the “polyreactivity (PSR sort gate)” value was “low polyreactivity”.
Consider “QFQLVESGGGLVQAGGSLRLSCAASGRTFTYNAMGWYRQAPGKERELVAAINSGGSTNYADSVKGRFTISRDNAKNTVYLQMNSLKPEDTAVYYCNAGFGFGSSRYGTRYYYWGQGTQVTVSS”, for which the “polyreactivity (PSR sort gate)” value is reported as “low polyreactivity”.
The result for “QFQLVESGGGLVQAGGSLRLSCAASGRTFVYYVMGWYRPAPGKERELVAAISRRGGSTYYADSVKGRFTISRDNAKNTVYLQMNSLKPEDTAVYYCAAQYYYAREDYWGQGTQVTVSS” reads “high polyreactivity”; that for “QFQLVESGGGLVQAGGSLRLSCAASGSIFDSYYMGWYRQAPGKEREMVAAITSGGSTNYADSVKGRFTISRDNAKNTVYLQMNSLKPEDTAVYYCAAYYWYPVYYGYEYWGQGTQVTVSS”, “low polyreactivity”.
For “QFQLVESGGGLVQAGGSLRLSCAASGSIFHPYTMGWYRPAPGKERELVAAISWSGGNTNYADSVKGRFTISRDNAKNTVYLQMNSLKPEDTAVYYCNKATNLSGGYDSWGQGTQVTVSS”, the “polyreactivity (PSR sort gate)” value is recorded as “low polyreactivity”.
Then “QFQLVESGGGLVQAGGSLRLSCAASGSIFKYYTMGRYRQAHGKEMELVAYISSGGSTKYADSVKGRFTISRDNAKNTVYLQMNSLKPEDTAVYYCAKRYYYFYPDYDYWGQGTQVTVSS”, with “high polyreactivity”; and “QFQLVESGGGLVQAGGSLRLSCAASGSIFPGYAMGWYRQAPGKERELVAAITVSGVSTYYADSVKGRFTISRDNEKNTVYLQMNSLKPEDTAVYYCARDNWQLYPSTWYDYWGQGTQVNVSS”, with “high polyreactivity”; and “QFQLVESGGGLVQAGGSLRLSCAASGSIFYGYAMGWYRQAPGKERELVARITGSGGDTSYADSVKGRFTISRDNAKNTVYLQMNSLKPEDTAVYYCNTDLYITYTLYTGSEYDYWGQGTQVTVSS”, with “low polyreactivity”.
The result for “QFQLVESGGGLVQAGGSLRLSCAASGSIFYTYTMGWYRQAPGKDRVLVAAISFSDGDTYYADSVKGRFTISRDNAKNTVYLQMNSLKPEDTAVYYSNAYVYLPNYPYDYWGQGTQVTVSS” reads “low polyreactivity”; that for “QFQLVESGGGLVQAGGSLRLSCAASGSIITPYAMGWYRPAPGKERELVAAISGRGGSTYYADSVKGRFTISRDNAKNTVYLQMNSLKPEDTAVYYCAARQYFRWYGWSMDYWGQGTQVTVSS”, “high polyreactivity”.
In the case of “QFQLVESGGGLVQAGGSLRLSCAASGSTFDTYAMGWYRQAPGKERDLFAAISGSGVRTYYADSVKGRFTISRDNAKNTVYLQMNSLKPEDTAVYYSAAAGSGYGGKQFDHGFNYWGQGTQVTVSS”, the “polyreactivity (PSR sort gate)” value is recorded as “high polyreactivity”.
Turning to “QFQLVESGGGLVQAGGSLRLSCAASGSTFPRYAMGWYRPAPGKERELVAAISRSGTSTYYADSVKGRFTISRDNAKNTVYLQMNSLKPEDTAVYYCAAEYHPRVLYPNWYDYWGQGTQVTVSS”, the “polyreactivity (PSR sort gate)” value is listed as “low polyreactivity”.
The result for “QFQLVESGGGLVQAGGSLRLSCAASGSTFRHNAMGWYRQASGKEREWVATIRTSGGTTYYADSVKGRFTISRDNAKNTVYLQMNSLKPEDTAFYYCAKDALFIDGGGGYDYWGQGTQVTVSS” reads “low polyreactivity”.
In the case of “QFQLVESGGGLVQAGGSLRLSCAASGSTLELNAMGWYIQAPGKERELVAAITSSGGRTYYADSVKGRFTISRDNAKNTVYLQMNSLKPEDTAVYYCAAEPGQHRVVDRYDYWGQGTQVTVSS”, the “polyreactivity (PSR sort gate)” value is “low polyreactivity”.
Then “QFQLVESGGGLVQAGGSLRLSCAASGVIFEWYTMGWYRQAPGKERELVARISSDGSTTYADSVKGRFTLSRDNAKNTVYFEMNSLKREDTAVYYCAADVSYPGLKYIFDYWGQGTLVTVSS”, with “low polyreactivity”; and “QFQLVESGGGLVQAGGSLRLSCAASGYIFLRNAMGCYRQAHGKERELVAAIRLTGGSTYYADSVKGRFTISRDNAKNTVYLQMNSLKPEDTAVYYCAKRSYTGYEYWGQGTQVTVSS”, with “low polyreactivity”.
Then “QFQLVESGGGLVQAGGSLRLSCAASVSTVVIYDMGWYRQAPGKERELVAAISYSGGSTYYADSVKGRFTITRDNAKNTVYLQMNSLKPEDTAVYYCNAGVLVLLYAYLPSDLEYWGQGTQVTVSS”, with “low polyreactivity”; and “QFQLVESGGGLVQAGGSLRLSCAPSGSTFVSYSMAWYRQEPGKERQFVAAITWSGGSTYYADSVKGRFTISRDNANNTVYLQMNSLKPEDTAVYYCARPYRGSPRYYYWGQGTQVTLSS”, with “high polyreactivity”.
As to “QFQLVESGGGLVQAGGSLRLSCDASGSIFSYYAMGWYRQAPGKERELVAAISQSGGTTYYADSLKGRFTISRDNEKNTVYLQMNSLKPEDTAVYYCAARAQSSFDTQYYYWGQGTQVTVSS”, the “polyreactivity (PSR sort gate)” value is reported as “low polyreactivity”.
The result for “QFQLVESGGGLVQAGGSLRLSCSASGSIFVSNAMGRSRQAPGKERELVAAISSSGDSTYYADSVKGRFTISRDNAKNTFYVQMNSLKPEDNAVYYCAAVGPWWFPEYDYWGQGTQVTVSS” reads “low polyreactivity”; that for “QFQLVESGGGLVQAGVSLRLSCAASGRIFSLYAMGWYRQAPGKERELVAAISYSGGSTYADSVKGRFTFSRDNAKNTVFLQMNSLKPEDTAVYYCAAEEYLAYAQFDYWGQGTQVTVSS”, “low polyreactivity”.
